To fix the notation:
T1: Mcm4 (S. cerevisiae, UniProt P30665 1-933)
T1 sequence: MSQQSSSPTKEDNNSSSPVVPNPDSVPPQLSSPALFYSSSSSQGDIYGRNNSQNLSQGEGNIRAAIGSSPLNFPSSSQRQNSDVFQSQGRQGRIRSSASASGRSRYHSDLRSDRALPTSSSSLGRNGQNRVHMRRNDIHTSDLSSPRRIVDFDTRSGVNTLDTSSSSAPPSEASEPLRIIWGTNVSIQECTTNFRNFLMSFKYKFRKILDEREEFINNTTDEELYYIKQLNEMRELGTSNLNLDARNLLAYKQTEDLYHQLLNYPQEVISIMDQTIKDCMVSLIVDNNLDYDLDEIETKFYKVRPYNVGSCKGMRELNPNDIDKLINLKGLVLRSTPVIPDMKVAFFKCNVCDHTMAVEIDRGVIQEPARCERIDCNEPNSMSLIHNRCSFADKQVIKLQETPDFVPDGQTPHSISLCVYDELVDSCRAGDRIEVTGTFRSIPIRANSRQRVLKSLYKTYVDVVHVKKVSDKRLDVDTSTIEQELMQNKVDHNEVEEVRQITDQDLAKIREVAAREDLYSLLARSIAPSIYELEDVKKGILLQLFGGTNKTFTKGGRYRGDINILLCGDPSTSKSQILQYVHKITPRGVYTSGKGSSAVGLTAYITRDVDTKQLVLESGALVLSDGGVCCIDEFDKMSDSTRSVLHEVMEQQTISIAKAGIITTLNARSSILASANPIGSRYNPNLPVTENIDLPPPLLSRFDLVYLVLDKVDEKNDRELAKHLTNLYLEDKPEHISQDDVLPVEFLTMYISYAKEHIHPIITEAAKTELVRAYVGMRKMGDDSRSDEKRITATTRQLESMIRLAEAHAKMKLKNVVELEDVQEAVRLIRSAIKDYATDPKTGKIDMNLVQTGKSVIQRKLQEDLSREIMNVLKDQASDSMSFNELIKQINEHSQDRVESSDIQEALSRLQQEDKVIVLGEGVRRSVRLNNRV

B1: Cdt1 (natural protein)
chain: MSGTANSRRKEVLRVPVIDLNRVSDEEQLLPVVRAILLQHDTFLLKNYANKAVLDALLAGLTTKDLPDTSQGFDANFTGTLPLEDDVWLEQYIFDTDPQLRFDRKCRNESLCSIYSRLFKLGLFFAQLCVKSVVSSAELQDCISTSHYATKLTRYFNDNGSTHDGADAGATVLPTGDDFQYLFERDYVTFLPTGVLTIFPCAKAIRYKPSTMATTDNSWVSIDEPDCLLFHTGTLLARWSQGMHTTSPLQIDPRANIVSLTIWPPLTTPISSKGEGTIANHLLEQQIKAFPKVAQQYYPRELSILRLQDAMKFVKELFTVCETVLSLNALSRSTGVPPELHVLLPQISSMMKRKIVQDDILKLLTIWSDAYVVELNSRGELTMNLPKRDNLTTLTNKSRTLAFVERAESWYQQVIASKDEIMTDVPAFKINKRRSSSNSKTVLSSKVQTKSSNANALNNSRYLANSKENFMYKEKMPDSQANLMDRLRERERRSAALLSQRQKRYQQFLAMKMTQVFDILFSLTRGQPYTETYLSSLIVDSLQDSNNPIGTKEASEILAGLQGILPMDISVHQVDGGLKVYRWNSLDKNRFSKLLQIHKSKQQD
B2: Mcm7 (natural protein)
chain: MSAALPSIQLPVDYNNLFNEITDFLVTFKQDTLSSDATRNENEDENLDAENIEQHLLEKGPKYMAMLQKVANRELNSVIIDLDDILQYQNEKFLQGTQADDLVSAIQQNANHFTELFCRAIDNNMPLPTKEIDYKDDVLDVILNQRRLRNERMLSDRTNEIRSENLMDTTMDPPSSMNDALREVVEDETELFPPNLTRRYFLYFKPLSQNCARRYRKKAISSKPLSVRQIKGDFLGQLITVRGIITRVSDVKPAVEVIAYTCDQCGYEVFQEVNSRTFTPLSECTSEECSQNQTKGQLFMSTRASKFSAFQECKIQELSQQVPVGHIPRSLNIHVNGTLVRSLSPGDIVDVTGIFLPAPYTGFKALKAGLLTETYLEAQFVRQHKKKFASFSLTSDVEERVMELITSGDVYNRLAKSIAPEIYGNLDVKKALLLLLVGGVDKRVGDGMKIRGDINVCLMGDPGVAKSQLLKAICKISPRGVYTTGKGSSGVGLTAAVMKDPVTDEMILEGGALVLADNGICCIDEFDKMDESDRTAIHEVMEQQTISISKAGINTTLNARTSILAAANPLYGRYNPRLSPLDNINLPAALLSRFDILFLMLDIPSRDDDEKLAEHVTYVHMHNKQPDLDFTPVEPSKMREYIAYAKTKRPVMSEAVNDYVVQAYIRLRQDSKREMDSKFSFGQATPRTLLGIIRLSQALAKLRLADMVDIDDVEEALRLVRVSKESLYQETNKSKEDESPTTKIFTIIKKMLQETGKNTLSYENIVKTVRLRGFTMLQLSNCIQEYSYLNVWHLINEGNTLKFVDDGTMDTDQEDSLVSTPKLAPQTTASANVSAQDSDIDLQDA
B3: Orc1 (natural protein)
chain: MAKTLKDLQGWEIITTDEQGNIIDGGQKRLRRRGAKTEHYLKRSSDGIKLGRGDSVVMHNEAAGTYSVYMIQELRLNTLNNVVELWALTYLRWFEVNPLAHYRQFNPDANILNRPLNYYNKLFSETANKNELYLTAELAELQLFNFIRVANVMDGSKWEVLKGNVDPERDFTVRYICEPTGEKFVDINIEDVKAYIKKVEPREAQEYLKDLTLPSKKKEIKRGPQKKDKATQTAQISDAETRATDITDNEDGNEDESSDYESPSDIDVSEDMDSGEISADELEEEEDEEEDEDEEEKEARHTNSPRKRGRKIKLGKDDIDASVQPPPKKRGRKPKDPSKPRQMLLISSCRANNTPVIRKFTKKNVARAKKKYTPFSKRFKSIAAIPDLTSLPEFYGNSSELMASRFENKLKTTQKHQIVETIFSKVKKQLNSSYVKEEILKSANFQDYLPARENEFASIYLSAYSAIESDSATTIYVAGTPGVGKTLTVREVVKELLSSSAQREIPDFLYVEINGLKMVKPTDCYETLWNKVSGERLTWAASMESLEFYFKRVPKNKKKTIVVLLDELDAMVTKSQDIMYNFFNWTTYENAKLIVIAVANTMDLPERQLGNKITSRIGFTRIMFTGYTHEELKNIIDLRLKGLNDSFFYVDTKTGNAILIDAAGNDTTVKQTLPEDVRKVRLRMSADAIEIASRKVASVSGDARRALKVCKRAAEIAEKHYMAKHGYGYDGKTVIEDENEEQIYDDEDKDLIESNKAKDDNDDDDDNDGVQTVHITHVMKALNETLNSHVITFMTRLSFTAKLFIYALLNLMKKNGSQEQELGDIVDEIKLLIEVNGSNKFVMEIAKTLFQQGSDNISEQLRIISWDFVLNQLLDAGILFKQTMKNDRICCVKLNISVEEAKRAMNEDETLRNL
B4: Orc4 (natural protein)
chain: MTISEARLSPQVNLLPIKRHSNEEVEETAAILKKRTIDNEKCKDSDPGFGSLQRRLLQQLYGTLPTDEKIIFTYLQDCQQEIDRIIKQSIIQKESHSVILVGPRQSYKTYLLDYELSLLQQSYKEQFITIRLNGFIHSEQTAINGIATQLEQQLQKIHGSEEKIDDTSLETISSGSLTEVFEKILLLLDSTTKTRNEDSGEVDRESITKITVVFIFDEIDTFAGPVRQTLLYNLFDMVEHSRVPVCIFGCTTKLNILEYLEKRVKSRFSQRVIYMPQIQNLDDMVDAVRNLLTVRSEISPWVSQWNETLEKELSDPRSNLNRHIRMNFETFRSLPTLKNSIIPLVATSKNFGSLCTAIKSCSFLDIYNKNQLSNNLTGRLQSLSDLELAILISAARVALRAKDGSFNFNLAYAEYEKMIKAINSRIPTVAPTTNVGTGQSTFSIDNTIKLWLKKDVKNVWENLVQLDFFTEKSAVGLRDNATAAFYASNYQFQGTMIPFDLRSYQMQIILQELRRIIPKSNMYYSWTQL

Test in all cases: cryo-EM structure
One assay has as its target Mcm6 (S. cerevisiae, UniProt P53091 1-1017).
In a further assay the target is Mcm3 (S. cerevisiae, UniProt P24279 1-971).
Sequence of Mcm3 (P24279 whole entry): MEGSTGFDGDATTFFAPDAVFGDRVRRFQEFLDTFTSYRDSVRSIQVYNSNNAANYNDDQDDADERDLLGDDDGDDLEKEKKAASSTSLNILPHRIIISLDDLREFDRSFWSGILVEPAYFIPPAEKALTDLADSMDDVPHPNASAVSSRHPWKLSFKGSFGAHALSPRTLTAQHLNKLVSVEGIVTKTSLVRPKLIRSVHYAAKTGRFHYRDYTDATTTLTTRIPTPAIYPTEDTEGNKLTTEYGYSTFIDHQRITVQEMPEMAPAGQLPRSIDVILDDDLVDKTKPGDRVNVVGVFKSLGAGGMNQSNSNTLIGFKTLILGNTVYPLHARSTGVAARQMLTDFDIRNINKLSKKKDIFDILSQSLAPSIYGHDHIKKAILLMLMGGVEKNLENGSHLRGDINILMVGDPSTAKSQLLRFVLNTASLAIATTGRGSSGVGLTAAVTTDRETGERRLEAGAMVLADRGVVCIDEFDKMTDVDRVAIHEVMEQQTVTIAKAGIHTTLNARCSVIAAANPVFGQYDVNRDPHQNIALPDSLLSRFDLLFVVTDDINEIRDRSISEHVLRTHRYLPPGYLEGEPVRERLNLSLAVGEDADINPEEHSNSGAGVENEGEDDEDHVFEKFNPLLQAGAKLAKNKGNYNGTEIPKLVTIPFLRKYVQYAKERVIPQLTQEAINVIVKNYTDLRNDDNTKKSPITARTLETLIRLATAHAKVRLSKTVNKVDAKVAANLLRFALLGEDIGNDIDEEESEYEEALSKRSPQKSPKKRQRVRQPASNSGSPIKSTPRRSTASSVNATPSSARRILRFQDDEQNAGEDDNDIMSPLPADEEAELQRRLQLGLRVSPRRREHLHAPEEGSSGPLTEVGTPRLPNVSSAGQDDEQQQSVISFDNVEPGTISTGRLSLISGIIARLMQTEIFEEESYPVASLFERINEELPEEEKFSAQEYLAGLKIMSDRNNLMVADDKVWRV
The next assay addresses T1, Mcm4.
The target in the assay “Orc1” is B3.
The assay “Cdt1” has as its target B1.

Sequence of Mcm6 (P53091 whole entry): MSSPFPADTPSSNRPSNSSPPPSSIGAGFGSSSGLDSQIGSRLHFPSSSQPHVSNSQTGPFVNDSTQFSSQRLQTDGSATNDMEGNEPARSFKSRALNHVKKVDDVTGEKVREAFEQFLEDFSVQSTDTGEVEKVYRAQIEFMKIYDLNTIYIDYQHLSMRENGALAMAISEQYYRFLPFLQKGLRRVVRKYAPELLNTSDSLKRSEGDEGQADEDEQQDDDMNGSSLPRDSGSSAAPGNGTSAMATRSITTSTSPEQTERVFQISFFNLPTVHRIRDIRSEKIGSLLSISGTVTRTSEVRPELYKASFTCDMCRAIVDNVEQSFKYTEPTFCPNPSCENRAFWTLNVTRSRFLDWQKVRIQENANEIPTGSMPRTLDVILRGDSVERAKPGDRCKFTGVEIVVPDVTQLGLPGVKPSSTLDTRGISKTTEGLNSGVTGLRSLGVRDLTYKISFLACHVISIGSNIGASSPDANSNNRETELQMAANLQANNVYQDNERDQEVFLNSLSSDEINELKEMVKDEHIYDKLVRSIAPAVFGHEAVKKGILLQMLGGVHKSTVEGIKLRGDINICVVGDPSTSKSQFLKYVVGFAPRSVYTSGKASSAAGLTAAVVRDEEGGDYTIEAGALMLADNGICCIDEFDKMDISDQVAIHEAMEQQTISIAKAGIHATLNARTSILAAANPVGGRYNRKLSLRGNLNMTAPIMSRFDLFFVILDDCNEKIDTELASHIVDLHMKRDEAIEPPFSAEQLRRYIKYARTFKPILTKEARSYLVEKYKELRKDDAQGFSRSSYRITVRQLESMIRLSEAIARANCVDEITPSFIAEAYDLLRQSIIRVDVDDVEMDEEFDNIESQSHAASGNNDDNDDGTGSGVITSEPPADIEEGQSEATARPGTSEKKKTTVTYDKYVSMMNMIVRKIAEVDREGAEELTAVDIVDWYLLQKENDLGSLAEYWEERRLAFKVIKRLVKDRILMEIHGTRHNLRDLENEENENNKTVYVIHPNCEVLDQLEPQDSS

For B1, in the assay with Mcm6, the binding result is listed as “binds”.
As to B2, the binding result with Mcm3 and with Mcm4 was “binds” in each case.
Regarding B3, the binding result with Mcm4 was “binds”.
As to B4, the binding result with Orc1, with Mcm6 and with Cdt1 was “binds” each time.

(Values after paper PMC5503505 (Nature structural & molecular biology, 2017).)
